Publication PMC5263062

Assays:
Assay in all cases: purified protein
purified protein [1] = substrate: Nc1ncnc2c1ncn2[C@@H]1O[C@H](COP(=O)(O)OP(=O)(O)OP(=O)(O)O)[C@@H](O)[C@H]1O; settings: 200 mM butyrate, 4 mM MnSO4, pH 7.5, 37 °C, no ADP
purified protein [2] = substrate: CCCC(=O)O; settings: 10 mM ATP, 4 mM MnSO4, pH 7.5, 37 °C
purified protein [3] = substrate: CCCCC(=O)O; settings: 10 mM ATP, 4 mM MnSO4, pH 7.5, 37 °C
purified protein [4] = substrate: CC(C)C(=O)O; settings: 10 mM ATP, 4 mM MnSO4, pH 7.5, 37 °C
purified protein [5] = substrate: CC(C)CC(=O)O; settings: 10 mM ATP, 4 mM MnSO4, pH 7.5, 37 °C

B1: LmBuk (Buk, butyrate kinase) (Listeria monocytogenes EGD-e) (protein)
chain: MSFDVLTINPGSTSTKLAVYQGDKVLFEETVRHTMQELADFNNVQEQFDFRWQVLRRVMDAHGYDVKKLQAVVGRGGLLRPVAGGTYMVTEKMIDDLKENKYGEHASNLGAMLAKKLADELTIPSFIVDPVVVDEMQEIARISGNAFVTRKSIFHALNHKAAGRKIAKELGKDYEKMNFVIAHLGGGISVAAHRQGKAVDVNNALDGDGPFSPERSGSLPMNDFLEACFSGKWTKRELHELIVGRGGMISYLGTNSMLEVEAKVQAGEEKAIEAFDAMAYQVSKEIGACSVVLQGKVDAIILTGGLARSELFTSKIIEQTNWITSVIIEPGEDELEALNSGVQRVLAGLEKEKEY
K0.5 (purified protein [1]): 3.18 mM
Km (purified protein [2]): 50.5 ± 5.8 mM
kcat (purified protein [2]): 0.8367 ± 0.00667 s⁻¹
kcat/Km (purified protein [2]): 16.5 M⁻¹ s⁻¹
Km (purified protein [3]): 13.1 ± 3.3 mM
kcat (purified protein [3]): 1.2 ± 0.0367 s⁻¹
kcat/Km (purified protein [3]): 91.7 M⁻¹ s⁻¹
Km (purified protein [4]): 7.6 ± 1.3 mM
kcat (purified protein [4]): 0.395 ± 0.00667 s⁻¹
kcat/Km (purified protein [4]): 51.7 M⁻¹ s⁻¹
Km (purified protein [5]): 57.1 ± 9.6 mM
kcat (purified protein [5]): 0.417 s⁻¹
kcat/Km (purified protein [5]): 7.33 M⁻¹ s⁻¹
